The target of the assay is T1, FPR-αi2 (R-α) fusion protein (UniProt P04897+P21462).
T1 construct: expressed in transfected cells; U937 stated only for FPR
As to the kind of experiment: RGS activity assay on beads (FPR-αi2, fluorescent ligand, GTP, Gβγ beads). The assay is classed as biochemical. On the procedure: FPR-αi2 (R-α) was used in the standard assembly assay with fluorescent ligand (see FIG. 3, complex C), and with the amounts of GTP and RGS shown in FIG. 7, using beads coated with Gβγ. Bead fluorescence was measured as previously described.
Standard LRG Assembly Assay. The standard 10 μl assay consisted of 2 μl of water or 10^−4M GTPγS, 6 μl of soluble receptor preparation with or without ligand, and 2 μl of beads prepared as above, with 0.7 pmol G protein used per assay, and an unknown fraction left on the beads in the proper orientation. For FPR and R-αi2 assemblies, L^F (fMLFK-FITC) was added in excess of receptor to ensure that essentially all the receptor was bound. For FPR-GFP assembly, 10^−6 M L (fMLFFGGK) was added to the receptor preparation to ensure that essentially all the receptor was bound. Each mixture was mixed by pipetting to ensure a uniform starting suspension of the beads in 96 V-well plates (Costar), and then mixed at low speed on a vortex mixer at 7° for two hours. The 10 μl assays were individually brought to 200 μl with 0.1% dodecyl maltoside in buffer A in 12×75 mm tubes for flow cytometric measurement of fluorescence of the beads. LRG assembly was defined as the difference between fluorescence without GTPγS and that with GTPγS. All determinations were done in duplicate.
RGS Activity Affects LR-αG Assemblies on Beads. As a second mechanistic problem, the role of GTP and RGS activity in regulating the assembly of βγ subunits with the receptor-Giα fusion protein was examined (FIG. 7; see also FIGS. 3, complex C and FIG. 4B). […] The data were consistent with the idea that RGS, by enhancing the cleavage of GTP, affected the GTP dose-response for the formation of the bead-based complex. The shift in the dose-response was consistent with the consumption of 10 μM or more GTP in 10 μl over 2 hours in the presence of R-α, RGS, and L. Calculating that 24 nM R-α (the total added) consumed 10 μM GTP equally in the first half hour, leaving 60 minutes for assembly on the bead, the turnover number was ˜14 min^−1 for the receptor-Giα fusion protein at 7° C.; if rates double for every 10° C. increase, this would imply about 110 min^−1 at 37° C. Calculating consumption over the entire time yields ˜5 and 40 min^−1, respectively.
The nucleotide sensitivity of the assembly of R-αi2 with βγ allowed the activity and specificity of RGS to be examined. […] This assembly format therefore has the potential for discriminating RGS antagonists. Elsewhere it is described how GTP increases access of soluble assemblies of R-αi2 to anti-αi2 antibody, consistent with the idea of Ay binding and release (Shi M, et al., submitted).

T1 sequence (P21462+P04897 fused): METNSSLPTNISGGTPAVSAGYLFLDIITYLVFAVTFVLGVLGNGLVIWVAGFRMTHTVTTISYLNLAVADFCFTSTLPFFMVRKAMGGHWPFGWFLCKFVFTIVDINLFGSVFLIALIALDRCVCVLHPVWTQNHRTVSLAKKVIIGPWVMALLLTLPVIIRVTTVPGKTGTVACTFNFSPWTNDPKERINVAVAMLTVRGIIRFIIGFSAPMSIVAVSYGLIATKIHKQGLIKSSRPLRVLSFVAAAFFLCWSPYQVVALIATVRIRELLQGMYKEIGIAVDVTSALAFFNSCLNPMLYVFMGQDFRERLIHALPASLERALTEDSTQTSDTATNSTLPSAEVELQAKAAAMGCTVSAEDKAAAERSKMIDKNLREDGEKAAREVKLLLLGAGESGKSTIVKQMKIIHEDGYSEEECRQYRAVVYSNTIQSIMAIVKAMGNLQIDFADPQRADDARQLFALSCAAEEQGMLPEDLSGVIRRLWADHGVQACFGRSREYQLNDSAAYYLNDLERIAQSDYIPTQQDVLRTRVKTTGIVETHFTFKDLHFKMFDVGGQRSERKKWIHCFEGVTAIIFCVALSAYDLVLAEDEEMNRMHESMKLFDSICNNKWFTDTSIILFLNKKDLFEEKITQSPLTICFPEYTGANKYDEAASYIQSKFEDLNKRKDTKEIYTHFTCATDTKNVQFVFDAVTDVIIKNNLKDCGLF

B1: RGS2: regulator of G protein signaling protein (protein, UniProt P41220 1-211, looked up)
Regulator of G-protein …: MQSAMFLAVQHDCRPMDKSAGSGHKSEEKREKMKRTLLKDWKTRLSYFLQNSSTPGKPKTGKKSKQQAFIKPSPEEAQLWSEAFDELLASKYGLAAFRAFLKSEFCEENIEFWLACEDFKKTKSPQKLSSKARKIYTDFIEKEAPKEINIDFQTKTLIAQNIQEATSGCFTTAQKRVYSLMENNSYPRFLESEFYQDLCKKPQITTEPHAT
With B1, the “GTP consumption in the presence of LR-α” value was “did not”.

B2: RGS4: regulator of G protein signaling protein (protein, UniProt P49798 1-205, looked up)
Regulator of G-protein …: MCKGLAGLPASCLRSAKDMKHRLGFLLQKSDSCEHNSSHNKKDKVVICQRVSQEEVKKWAESLENLISHECGLAAFKAFLKSEYSEENIDFWISCEEYKKIKSPSKLSPKAKKIYNEFISVQATKEVNLDSCTREETSRNMLEPTITCFDEAQKKIFNLMEKDSYRRFLKSRFYLDLVNPSSCGAEKQKGAKSSADCASLVPQCA
In the case of B2, the “GTP consumption in the presence of LR-α” value is listed as “appeared to consume GTP”.

B3: RGS7: regulator of G protein signaling protein (protein, UniProt P49802 1-495, looked up)
Regulator of G-protein …: MAQGNNYGQTSNGVADESPNMLVYRKMEDVIARMQDEKNGIPIRTVKSFLSKIPSVFSGSDIVQWLIKNLTIEDPVEALHLGTLMAAHGYFFPISDHVLTLKDDGTFYRFQTPYFWPSNCWEPENTDYAVYLCKRTMQNKARLELADYEAESLARLQRAFARKWEFIFMQAEAQAKVDKKRDKIERKILDSQERAFWDVHRPVPGCVNTTEVDIKKSSRMRNPHKTRKSVYGLQNDIRSHSPTHTPTPETKPPTEDELQQQIKYWQIQLDRHRLKMSKVADSLLSYTEQYLEYDPFLLPPDPSNPWLSDDTTFWELEASKEPSQQRVKRWGFGMDEALKDPVGREQFLKFLESEFSSENLRFWLAVEDLKKRPIKEVPSRVQEIWQEFLAPGAPSAINLDSKSYDKTTQNVKEPGRYTFEDAQEHIYKLMKSDSYPRFIRSSAYQELLQAKKKSGNSMDRRTSFEKFAQNVGRNIPIFPCHKNCTPTLRASTNLL
As for B3, the “GTP consumption in the presence of LR-α” value was “appeared to consume GTP”.

B4: RGS8: regulator of G protein signaling protein (protein, UniProt P57771 1-180, looked up)
Regulator of G-protein …: MAALLMPRRNKGMRTRLGCLSHKSDSCSDFTAILPDKPNRALKRLSTEEATRWADSFDVLLSHKYGVAAFRAFLKTEFSEENLEFWLACEEFKKTRSTAKLVSKAHRIFEEFVDVQAPREVNIDFQTREATRKNLQEPSLTCFDQAQGKVHSLMEKDSYPRFLRSKMYLDLLSQSQRRLS
As to B4, the “GTP consumption in the presence of LR-α” value is reported as “appeared to consume GTP”.

The values are drawn from US7189519B2, “Bead-based detection of ligand-GPCR-G protein complexes” (STC.UNM, priority 1998, dated 2007).
